Measured values from patent US20260209365A1, “ANTI-COMMON GAMMA CHAIN PROTEINS AND COMPOSITIONS OF MATTER” (SINOMAB BIOSCIENCE LIMITED, priority 2023, published 2026).

T1: human γc protein (extracellular domain) (human, UniProt P31785 23-262)
T1 construct: Purchased from Sino Biological or made in-house; Residues 1-262 may hold the signal peptide; also called human common gamma chain; purified human γc
T1 sequence: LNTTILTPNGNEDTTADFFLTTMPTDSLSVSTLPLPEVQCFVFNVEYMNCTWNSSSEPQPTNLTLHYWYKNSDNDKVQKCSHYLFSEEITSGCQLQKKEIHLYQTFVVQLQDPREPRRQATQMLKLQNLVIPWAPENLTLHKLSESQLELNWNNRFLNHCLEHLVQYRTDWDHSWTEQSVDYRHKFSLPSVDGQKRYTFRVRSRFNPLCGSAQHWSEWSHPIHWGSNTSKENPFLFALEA

T2: chimpanzee γc protein (extracellular domain), purified (chimpanzee (Pan troglodytes), UniProt P31785 23-262)
T2 construct: also called chimpanzee (Pan troglodytes) γc
T2 sequence: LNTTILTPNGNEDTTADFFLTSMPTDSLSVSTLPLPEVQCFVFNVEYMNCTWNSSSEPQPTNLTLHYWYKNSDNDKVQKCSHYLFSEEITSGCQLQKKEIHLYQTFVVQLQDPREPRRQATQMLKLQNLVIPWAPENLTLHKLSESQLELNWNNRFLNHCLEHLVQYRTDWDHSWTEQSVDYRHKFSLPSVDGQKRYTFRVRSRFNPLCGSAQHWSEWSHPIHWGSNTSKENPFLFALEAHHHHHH

T3: human γc protein (extracellular domain), purified (human (Homo sapiens), UniProt P31785 23-262)
T3 construct: Either purchased from Sino Biological or in-house generated; also called human common gamma chain; CD132; not shown: which was used i
T3 sequence: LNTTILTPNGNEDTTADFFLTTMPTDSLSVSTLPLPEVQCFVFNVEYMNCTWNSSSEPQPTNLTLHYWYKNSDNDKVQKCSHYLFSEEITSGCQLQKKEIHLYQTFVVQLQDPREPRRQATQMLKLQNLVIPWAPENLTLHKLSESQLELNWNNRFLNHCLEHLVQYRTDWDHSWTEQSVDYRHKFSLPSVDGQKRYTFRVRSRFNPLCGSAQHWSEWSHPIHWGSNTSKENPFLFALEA

T4: cynomolgus γc protein (extracellular domain), purified (cynomolgus (Macaca fascicularis), UniProt P31785 23-254 (human entry))
T4 construct: Purchased from Sino Biological or in-house; also called cynomolgus (Macaca fascicularis) γc
T4 chain: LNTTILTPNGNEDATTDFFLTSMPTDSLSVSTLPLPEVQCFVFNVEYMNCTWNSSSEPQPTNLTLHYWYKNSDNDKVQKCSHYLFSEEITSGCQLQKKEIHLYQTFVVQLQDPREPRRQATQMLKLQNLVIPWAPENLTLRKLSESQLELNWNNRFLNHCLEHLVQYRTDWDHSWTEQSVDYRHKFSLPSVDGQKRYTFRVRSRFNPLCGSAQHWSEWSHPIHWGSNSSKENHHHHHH

T5: rat γc protein (extracellular domain) (rat)
T5 chain: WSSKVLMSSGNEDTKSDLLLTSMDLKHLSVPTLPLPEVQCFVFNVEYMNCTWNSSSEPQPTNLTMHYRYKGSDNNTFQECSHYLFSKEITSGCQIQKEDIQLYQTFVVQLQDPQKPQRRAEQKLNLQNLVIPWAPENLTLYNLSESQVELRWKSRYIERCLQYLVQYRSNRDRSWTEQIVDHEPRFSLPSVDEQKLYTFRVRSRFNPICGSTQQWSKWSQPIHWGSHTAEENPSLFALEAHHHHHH

T6: mouse γc protein (extracellular domain) (mouse, UniProt P34902 23-263)
T6 construct: also called Mus musculus γc
T6 sequence: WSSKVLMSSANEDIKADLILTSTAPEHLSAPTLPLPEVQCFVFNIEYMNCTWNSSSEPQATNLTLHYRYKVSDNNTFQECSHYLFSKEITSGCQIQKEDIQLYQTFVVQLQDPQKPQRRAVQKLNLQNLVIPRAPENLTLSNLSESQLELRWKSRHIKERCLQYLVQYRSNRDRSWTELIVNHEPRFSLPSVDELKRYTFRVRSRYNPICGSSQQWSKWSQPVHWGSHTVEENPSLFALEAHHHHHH

T7: cynomolgus γc protein (extracellular domain) (cynomolgus, UniProt P31785 23-254 (human entry))
T7 construct: also called Macaca fascicularis γc
T7 chain: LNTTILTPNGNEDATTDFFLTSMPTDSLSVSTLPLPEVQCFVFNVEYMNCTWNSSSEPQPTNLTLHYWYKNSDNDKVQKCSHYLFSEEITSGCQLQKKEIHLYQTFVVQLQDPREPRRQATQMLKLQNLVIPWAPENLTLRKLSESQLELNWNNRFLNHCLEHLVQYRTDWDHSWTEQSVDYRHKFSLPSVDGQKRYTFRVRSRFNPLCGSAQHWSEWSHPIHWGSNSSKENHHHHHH

T8: common marmoset γc protein (extracellular domain) (common marmoset, UniProt P31785 26-262 (human entry))
T8 construct: also called Callithrix jacchus γc
T8 chain: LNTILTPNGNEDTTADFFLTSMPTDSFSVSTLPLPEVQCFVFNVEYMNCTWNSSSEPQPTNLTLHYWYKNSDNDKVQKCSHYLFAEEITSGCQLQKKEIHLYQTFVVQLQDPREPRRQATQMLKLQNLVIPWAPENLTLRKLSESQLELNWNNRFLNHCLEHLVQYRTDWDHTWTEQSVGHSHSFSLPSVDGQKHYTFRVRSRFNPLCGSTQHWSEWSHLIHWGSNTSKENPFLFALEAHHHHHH


Experiments:
[1] = target: T1, human γc protein (extracellular domain); test: monoclonal phage ELISA, human γc protein; negative control
[2] = target: T2, chimpanzee γc protein (extracellular …); test: ELISA, strip coated with 1 µg/ml chimpanzee γc, antibody in 5-fold dilutions from 10 to 0.00064 µg/ml, OD 450 nm; sigmoid curve reaching about 1.4
Description: (§1) More particularly, FIG. 3A presents the binding curve of SM-05A and FIG. 3B presents the bin ding curve of SM-05E. In each example, the ELISA strip was coated with 1 μg/ml γc protein from each species and antibody was diluted 5-fold each from 10 μg/ml to 0.00064 μg/ml.
(§2) Selected clones of full-length antibodies were evaluated by ELISA to access the binding specificity.

[3] = target: T3, human γc protein (extracellular …); test: ELISA, strip coated with 1 µg/ml human γc, antibody in 5-fold dilutions from 10 to 0.00064 µg/ml, OD 450 nm; sigmoid curve with plateau about 1.55
Description: as §1, §2

[4] = target: T4, cynomolgus γc protein (extracellular …); test: ELISA, strip coated with 1 µg/ml cynomolgus γc, antibody in 5-fold dilutions from 10 to 0.00064 µg/ml, OD 450 nm; curve stays near baseline up to about 0.4 µg/ml and rises to about 1.35 at 10 µg/ml, no upper plateau
Description: as §1, §2

[5] = target: T5, rat γc protein (extracellular domain); test: BLI, antibody on anti-human IgG sensors, rat γc in solution
[6] = target: T6, mouse γc protein (extracellular domain); test: BLI, antibody on anti-human IgG sensors, mouse γc in solution
Description: (§3) Full-length humanized antibodies were evaluated by BLI to access their binding kinetics. The binding activities of full-length anti-γc antibody were investigated using γc proteins (extracellular domain) from human and common marmoset (either purchased or in-house generated). Briefly, anti-γc antibody (20 μg/mL) was immobilized on biosensors via interactions with anti-human IgG; serially diluted γc proteins (at a concentration of 158.7 nM, 79.4 Nm, 39.7n M and 0 nM respectively) were subsequently added following standard operation protocols of the Octet ReD96 system to plot out the association and dissociation curve. Irrelevant antibody (SM03, anti-human CD22 chimeric IgG1 antibody, SinoMab BioScience Limited) was used as the control reference. The KD is within the picomolar-single digit nanomolar range.

[7] = target: T7, cynomolgus γc protein (extracellular …); test: BLI, antibody on anti-human IgG sensors, cynomolgus γc in solution
[8] = target: T8, common marmoset γc protein …; test: BLI, antibody on anti-human IgG sensors, common marmoset γc in solution
Description: as §3

[9] = target: T1, human γc protein (extracellular domain); test: BLI (Octet RED96), antibody on anti-human IgG sensors, γc in solution; Experiment 1
Description: as §3

[10] = target: T1, human γc protein (extracellular domain); test: BLI (Octet RED96), antibody on anti-human IgG sensors, γc in solution; Experiment 2
Description: as §3

[11] = target: T3, human γc protein (extracellular …); test: ELISA, strip coated with 1 µg/ml human γc, antibody in 5-fold dilutions from 10 to 0.00064 µg/ml, OD 450 nm; sigmoid curve with plateau about 1.6
Description: as §1, §2

[12] = target: T2, chimpanzee γc protein (extracellular …); test: ELISA, strip coated with 1 µg/ml chimpanzee γc, antibody in 5-fold dilutions from 10 to 0.00064 µg/ml, OD 450 nm; curve rises to about 1.5 at the last point shown
Description: as §1, §2

[13] = target: T4, cynomolgus γc protein (extracellular …); test: ELISA, strip coated with 1 µg/ml cynomolgus γc, antibody in 5-fold dilutions from 10 to 0.00064 µg/ml, OD 450 nm; curve stays near baseline up to about 0.08 µg/ml and rises to about 1.65 at 10 µg/ml, no upper plateau
Description: as §1, §2

Row | Molecule | Kd [5] | Kd [6] | koff [6] | kon [6] | Kd [7] | koff [7] | kon [7] | Kd [8] | koff [8] | kon [8] | Kd [9] | koff [9] | kon [9] | Kd [10] | koff [10] | kon [10] | further results
1 | M13KO7 (negative) | – | – | – | – | – | – | – | – | – | – | – | – | – | – | – | – | OD (450 nm) [1]: 0.045 OD
2 | SM-05A full-length chimeric anti-γc antibody (antibody, V domains shown, Full-length chimeric antibody made in Expi-CHO (mouse variable, human constant regions)) VH: EVQLQQSGPELVKPGASVKISCKTSGYTFTEYTMHWVKQSHGKSLEWIGGIDPYNGGATYNQRFKGKATLTVDKSSSTAYMEFRSLTSEDSAVYYCARRRLYYGNALDYWGQGTSVTVSS VL: DVLMTQTPLSLPVSLGDQASISCRSSQSLVHSNGNTYLHWYLQRPGQSPKLLIYKVSSRFSGVPDRFSGSGSGTDFTLKISRVEAEDLGVYFCSQTTHVPFTFGSGTKLEIKR | – | – | – | – | – | – | – | – | – | – | – | – | – | – | – | – | EC50 [2]: 0.17 µg/mL; EC50 [3]: 0.02 µg/mL; EC50 [4]: 14.5 µg/mL
3 | hSM-05A (humanized anti-γc antibody with back-mutation) (antibody, V domains shown, Full-length humanized antibody; 199-200' and the pairing of claim 11(b); also called hbSM-05A; humanized SM-05A) VH: QVQLVQSGAEVLKPGASVKVSCKASGYTFTEYTMHWVKQARGQRLEWIGGIDPYNGGATYNQRFKGKATLTTDTSTSTAYMELRNLRSDDTAVYYCARRRLYYGNALDYWGQGTLVTVSS VL: DIVMTQSPLSLPVTPGEQASISCRSSQSLVHSNGNTYLHWYLQKPGQSPQLLIYKVSSRFSGVPDRFSGSGSGTDFTLKISRVEAEDVGVYFCSQTTHVPFTFGSGTKLEIKR | 16.1 nM | 108 nM | 0.000712 s⁻¹ | 6580 M⁻¹ s⁻¹ | 304 nM | 0.00683 s⁻¹ | 22500 M⁻¹ s⁻¹ | 4.05 nM | 0.00121 s⁻¹ | 300000 M⁻¹ s⁻¹ | 2.69 nM | 0.000319 s⁻¹ | 119000 M⁻¹ s⁻¹ | 8.23 nM | 0.00144 s⁻¹ | 175000 M⁻¹ s⁻¹ | –
4 | SM-05E full-length chimeric anti-γc antibody (antibody, V domains shown, Full-length chimeric antibody made in Expi-CHO) VH: EVHLQQSGPELVKPGASVKIFCKTSGYTFTEYTMHWVKQSHGESLEWIGGIDPNTGGVTYNQKFKGKATLTADKSSSTAYMELRSLTSEDSAVYYCARRRRYYGYALDYWGQGTSVTVSS VL: DVLMTQTPLSLPVSLGDQASISCRSSQSIVHSNGNTYLEWYLQKPGQSPKLLIYKVSNRFSGVPDRFSGSGSGTDFTLKISSVEAEDLGVYFCSQSTHVPFMFGSGTKLEIKR | – | – | – | – | – | – | – | – | – | – | – | – | – | – | – | – | EC50 [11]: 0.02 µg/mL; EC50 [12]: 0.17 µg/mL; EC50 [13]: 6.47 µg/mL
5 | hSM-05E (humanized anti-γc antibody with back-mutation) (antibody, V domains shown, Full-length humanized antibody; VH 198 / VL 200 tied to SM-05E only by the order '(e.g., SM-05A, SM-05E) ; 199-200' and the pairing of claim 11(d); also called hbSM-05E; humanized SM-05E) VH: QVQLVQSGAEVLKPGASVKVSCKASGYTFTEYTMHWVKQARGQRLEWIGGIDPNTGGVTYNQKFKGKATLTTDTSTSTAYMELRNLRSDDTAVYYCARRRRYYGYALDYWGQGTLVTVSS VL: DIVMTQSPLSLPVTPGEQASISCRSSQSIVHSNGNTYLEWYLQKPGQSPQLLIYKVSNRFSGVPDRFSGSGSGTDFTLKISRVEAEDVGVYFCSQSTHVPFMFGSGTKLEIKR | 29.3 nM | 66.2 nM | 0.0252 s⁻¹ | 340000 M⁻¹ s⁻¹ | 304 nM | 0.00683 s⁻¹ | 22500 M⁻¹ s⁻¹ | 5.27 nM | 0.00175 s⁻¹ | 333000 M⁻¹ s⁻¹ | 4.82 nM | 0.000573 s⁻¹ | 119000 M⁻¹ s⁻¹ | 2.89 nM | 0.000944 s⁻¹ | 327000 M⁻¹ s⁻¹ | koff [5]: 0.00208 s⁻¹; kon [5]: 71000 M⁻¹ s⁻¹
